Among the data in the Immune Epitope Database (IEDB) are Kd and IC50 values, retold here.

The target in one assay is HLA-B*07:02. Put plainly: IEDB peptide-MHC binding, purified MHC/competitive/radioactivity; filed as Kd, often an IC50 or EC50 that approximates it; ≥ and ≤ were set here for values at or beyond the usual limits of such assays.
In another assay the target is HLA-B*51:01. The description is as above.
In a further assay the target is HLA-B*15:01. Described as above.
For assay [1], the target named is HLA-A*24:02. The assay is described as follows: IEDB peptide-MHC binding, purified MHC/competitive/fluorescence; ≥ and ≤ were set here for values at or beyond the usual limits of such assays.
The next assay has as its target HLA-A*33:01. Put plainly: IEDB peptide-MHC binding, purified MHC/competitive/radioactivity; filed as Kd, often an IC50 or EC50 that approximates it; ≥ and ≤ were set here for values at or beyond the usual limits of such assays. To be noted: source organism: Vaccinia virus WR.
For a further assay, the target named is HLA-A*03:01. The assay is described as above. The note with it: source organism: Vaccinia virus WR.
For a further assay, the target named is HLA-A*11:01. The assay is described as above. To be noted: source organism: Vaccinia virus WR.
The next assay has as its target HLA-A*29:02. Described as above.
The target of the next assay is HLA-A*31:01. The assay is described as above. The note with it: source organism: Vaccinia virus WR.
A further assay concerns the target HLA-A*68:01. The assay is described as above. The note with it: source organism: Vaccinia virus WR.
The next assay has as its target HLA-B*40:01. The description is as above.
In another assay the target is HLA-B*53:01. The assay is described as above.
A further assay has as its target HLA-A*30:02. The assay is described as above.
For a further assay, the target named is HLA-A*01:01. The description is as above.
In another assay the target is HLA-B*44:02. The assay is described as above.
Another assay deals with HLA-B*44:03. Described as above.
Assay [2] concerns the target HLA-A*26:01. Described as above.
The target of another assay is HLA-A*23:01. The description is as above.
For the next assay, the target named is HLA-A*02:01. The assay is described as follows: IEDB peptide-MHC binding, purified MHC/competitive/fluorescence; ≥ and ≤ were set here for values at or beyond the usual limits of such assays. To be noted: source organism: Vaccinia virus.
For assay [3], the target named is HLA-A*24:02. Put plainly: IEDB peptide-MHC binding, purified MHC/competitive/radioactivity; filed as Kd, often an IC50 or EC50 that approximates it; ≥ and ≤ were set here for values at or beyond the usual limits of such assays.
Assay [4] concerns the target HLA-A*26:01. Put plainly: IEDB peptide-MHC binding, purified MHC/direct/fluorescence; filed as Kd, often an IC50 or EC50 that approximates it; ≥ and ≤ were set here for values at or beyond the usual limits of such assays. The note with it: source organism: West Nile virus.
Setting [5] is: source organism: Dengue virus 3 Martinique/1243/1999.
Where [6] appears, read: source organism: Vaccinia virus WR.
Where [7] appears, read: source organism: Vaccinia virus.
[8] abbreviates: source organism: Dengue virus 4 Philippines/H241/1956.
[9] abbreviates: source organism: Dengue virus 1 Brazil/97-11/1997.
Where [10] appears, read: source organism: Dengue virus 2 Jamaica/1409/1983.
The mark [11] stands for this setting: source organism: Zaire ebolavirus.
Where [12] appears, read: source organism: Mammarenavirus brazilense.
Where [13] appears, read: source organism: Dengue virus 1 Singapore/S275/1990.

As to TPQASTTEAI, the Kd with HLA-B*07:02 (setting [5]) is 0.0453 µM; in the assay with HLA-B*51:01 (setting [5]), no less than 22.9 µM.
In the case of MMIDDFGTA, the Kd in the assay with HLA-B*15:01 (setting [6]) was 0.0076 µM.
For the sequence EKEFLRYLL, in the assay with HLA-A*24:02 [1] (setting [7]), the concentration for half-maximal inhibition (IC50) is no less than 116 µM.
Turning to LAESVKMHM, the Kd in the assay with HLA-B*15:01 (setting [6]) was 0.963 µM.
For ESRPFDLIKK, the Kd in the assay with HLA-A*33:01 was 1 µM; with HLA-A*03:01, 0.236 µM; with HLA-A*11:01 it was 0.0742 µM; in the assay with HLA-A*29:02 (setting [6]), no less than 71.4 µM; with HLA-A*31:01, 0.257 µM; with HLA-A*68:01, 0.00214 µM.
In the case of IENSTANVSL, the Kd with HLA-B*40:01 (setting [5]) turned out to be 0.00606 µM.
For the sequence TPVHSWEDI, the dissociation constant (Kd) was 16 µM with HLA-B*51:01 (setting [8]) and 2.22 µM in the assay with HLA-B*53:01 (setting [8]).
LEIGKLPQHL: in the assay with HLA-B*40:01 (setting [9]), the Kd is 0.145 µM.
Regarding ISKIPGGNMY, the figures for the Kd with HLA-B*15:01 (setting [9]), in the assay with HLA-A*30:02 (setting [9]) and with HLA-A*01:01 (setting [9]) were 0.137 µM, 0.0154 µM and no less than 27.8 µM, respectively.
As for VEDEEFWKL, the Kd in the assay with HLA-B*40:01 (source organism: Dengue virus 3 Sri Lanka/1266/2000) came to 0.0181 µM.
On to TEMGRLPTF, for which the Kd with HLA-B*44:02 (setting [10]) is 0.01 µM; in the assay with HLA-B*44:03 (setting [10]), 0.024 µM.
Turning to TFSIPLGVI, in the assay with HLA-A*24:02 [1] (setting [11]), the concentration for half-maximal inhibition (IC50) turned out to be 0.0849 µM. In other words, the double-digit nanomolar range.
For the sequence WEGSPGKFW, the Kd was 0.0244 µM with HLA-B*44:02 (setting [9]) and 0.0535 µM in the assay with HLA-B*44:03 (setting [9]).
As to RPGYFTQTA, the Kd in the assay with HLA-B*07:02 (setting [9]) came out at 0.00478 µM.
EYTYPDSLE yielded a half-maximal inhibitory concentration (IC50) in the assay with HLA-A*24:02 [1] (setting [11]) of no less than 190 µM.
Regarding IEAGRTLRVL, in the assay with HLA-B*40:01 (setting [10]), the Kd worked out at 0.17 µM.
In the case of DPKRYFVPIF, the dissociation constant Kd in the assay with HLA-A*01:01 (setting [12]) is no less than 70.4 µM; with HLA-A*26:01 [2] (setting [12]), no less than 69.7 µM.
As for EKSAAIDGEY, the Kd in the assay with HLA-A*30:02 (setting [9]) is 0.0493 µM; with HLA-A*01:01 (setting [9]) it was 2.42 µM; with HLA-A*26:01 [2] (setting [9]) it was 2.04 µM.
Turning to SEMIIPKIYG, the Kd with HLA-B*44:02 (setting [13]) was determined as 0.00953 µM; with HLA-B*44:03 (setting [13]), 0.0188 µM.
With MLIEVILTA, the Kd in the assay with HLA-B*15:01 (setting [6]) was determined as 0.207 µM.
For LLSSTRVPNY, the equilibrium dissociation constant (Kd) with HLA-A*30:02 (setting [8]) came to 2.17 µM; with HLA-A*01:01 (setting [8]), 2.26 µM.
Take LWEGSPGKFW: the Kd with HLA-A*23:01 (setting [9]) is 2.25 µM.
In the case of SEAVNDSRF, the Kd came out at 0.0179 µM in the assay with HLA-B*44:02 (setting [8]) and 0.0666 µM in the assay with HLA-B*44:03 (setting [8]).
For the sequence YENLKYSVI, the dissociation constant Kd in the assay with HLA-B*44:02 (setting [9]) was 0.0902 µM.
Consider LAKKTLAPF, for which, in the assay with HLA-B*15:01 (setting [6]), the dissociation constant (Kd) is 0.00213 µM.
The sequence NRKAIDFLL showed an IC50 with HLA-A*24:02 [1] (source organism: Sudan ebolavirus) of no less than 72.4 µM.
For the sequence SPSVEVKLPD, the Kd with HLA-B*07:02 (setting [8]) turned out to be 0.205 µM.
YFIKHVLAF: the Kd in the assay with HLA-B*15:01 (setting [6]) was 0.00253 µM.
For TRAADEPPL, the IC50 is no less than 169 µM with HLA-A*24:02 [1] (setting [7]) and no less than 1400 µM with HLA-A*02:01.
As to MILPMSRAF, in the assay with HLA-A*24:02 [1] (source organism: Mus musculus), the concentration for half-maximal inhibition (IC50) was 1.75 µM.
As to VPFCSHHFHQ, the Kd with HLA-B*07:02 (setting [9]) was no less than 20.9 µM; in the assay with HLA-B*51:01 (setting [9]), no less than 69.6 µM.
In the case of PYLKATKQI, the Kd with HLA-A*23:01 (setting [12]) is 0.131 µM; with HLA-A*24:02 [3] (setting [12]), 0.564 µM; in the assay with HLA-A*29:02 (setting [12]), no less than 78.9 µM.
QWFFDLPLPW: the Kd stood at 0.0147 µM with HLA-A*23:01 (setting [5]), 0.0748 µM with HLA-A*24:02 [3] (setting [5]) and 2.64 µM with HLA-B*44:03 (setting [5]).
Take LSIPHDLMEF: the Kd was 0.00599 µM with HLA-B*15:01 (setting [8]) and no less than 36.2 µM with HLA-A*01:01 (setting [8]).
Consider LEENVEVEI, for which the Kd in the assay with HLA-B*40:01 (setting [10]) was 0.0109 µM.
IVNAQPKCN gave a half-maximal inhibitory concentration (IC50) with HLA-A*24:02 [1] (setting [11]) of 8.88 µM.
For the sequence AEMEEALRG, the values for the dissociation constant Kd with HLA-B*44:02 (setting [10]) and in the assay with HLA-B*44:03 (setting [10]) were 0.00465 µM and 0.0132 µM, respectively.
FVLALLAFF returned a dissociation constant (Kd) with HLA-A*26:01 [4] of no less than 20 µM.
With MPLVMAWRT, the Kd with HLA-B*51:01 (setting [8]) was 0.693 µM; in the assay with HLA-B*53:01 (setting [8]), 0.0884 µM.
For the sequence PPTAGVLARW, the Kd with HLA-B*53:01 (setting [5]) was 4.93 µM.

In general, Kd refers to the free concentration of one partner at which half of the binding sites on the other are occupied at equilibrium, for simple one-to-one binding. For orientation: IC50 means the point on the concentration scale where inhibition reaches its midpoint. A high value points to weaker potency.
